1 substance from US20040253248A1 can be followed below.

The experiment has as its target rat neurokinin-1 receptor (NK-1R) (rat) (UniProt P14600).

Chain of rat neurokinin-1 receptor (NK-1R) (rat) (P14600 whole entry): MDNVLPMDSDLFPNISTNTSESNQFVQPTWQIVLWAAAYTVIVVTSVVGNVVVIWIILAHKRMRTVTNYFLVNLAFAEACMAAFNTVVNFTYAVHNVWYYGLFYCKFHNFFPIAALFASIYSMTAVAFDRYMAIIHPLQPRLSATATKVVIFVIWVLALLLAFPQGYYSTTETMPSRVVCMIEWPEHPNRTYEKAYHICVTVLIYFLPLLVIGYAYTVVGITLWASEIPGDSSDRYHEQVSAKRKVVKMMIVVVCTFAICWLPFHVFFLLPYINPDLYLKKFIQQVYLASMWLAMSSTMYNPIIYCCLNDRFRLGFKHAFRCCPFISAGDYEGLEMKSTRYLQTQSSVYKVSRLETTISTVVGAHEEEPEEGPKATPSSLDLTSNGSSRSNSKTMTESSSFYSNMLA

Substance “[Sar9, Met (02)11]-SP-SAP (from UniProt P20656 25-277)” came in with an IC50 (read off the curve) of 0.2 nM.
